# PMC9343077 (Research, 2022)
# B1: ^68Ga-Nb1159 (nanobody Nb11-59 conjugated to NOTA and radiolabeled with ^68Ga) (VHH)
# VHH: EVQLQESGGGLVQPGGSLRLSCAASGFTFSSYDMSWVRQAPGKGLEWVSAINSSGGSTYYADSVKGRFTISRDNAKNTLYLQMNSLKTEDTAVYYCAPSQTYGGSWYWDPIGDWGQGTLVTVSS
# notes: also called ^68Ga-NOTA-Nb1159; NOTA-Nb1159 (before labelling)
# Biological target: T1, SARS-CoV-2 spike RBD (Arg319-Asn532) fused to a His tag (SARS-CoV-2, UniProt P0DTC2)
# T1 construct: also called SARS-CoV-2 spike RBD-His; SARS-CoV-2-RBD-His; not shown: His tag, N-terminal, kept
# Experiment: radioligand binding
# Settings: both partners purified
binder,measurement,value
B1,Kd,0.0255 µM
